Experimental findings from article doi:10.1101/2022.02.01.475276 are described below.

Holding throughout (assay): EMSA
Background: Mobility shift assays separate free from complexed probe on a gel.

Data set [1] concerns the target HIF2a;ARNT (HIFa partner) (human;human, UniProt Q99814;P27540 1-353;1-503, |).
The target in data set [2] is HIF1a;ARNT (HIFa partner) (human?;human, UniProt Q16665;P27540 1-375;1-503, |).
Data set [3] concerns the target SIM1;ARNT2 (SIM1 partner) (;, UniProt P81133;Q9HBZ2 1-348;1-455, |).
The target of data set [4] is NPAS4;ARNT2 (NPAS4 partner) (mouse;mouse, UniProt Q8BGD7;Q61324 1-329;1-481, |).
Sequence of NPAS4;ARNT2 (NPAS4 partner) (Q8BGD7 1-329, chain 1 of 2): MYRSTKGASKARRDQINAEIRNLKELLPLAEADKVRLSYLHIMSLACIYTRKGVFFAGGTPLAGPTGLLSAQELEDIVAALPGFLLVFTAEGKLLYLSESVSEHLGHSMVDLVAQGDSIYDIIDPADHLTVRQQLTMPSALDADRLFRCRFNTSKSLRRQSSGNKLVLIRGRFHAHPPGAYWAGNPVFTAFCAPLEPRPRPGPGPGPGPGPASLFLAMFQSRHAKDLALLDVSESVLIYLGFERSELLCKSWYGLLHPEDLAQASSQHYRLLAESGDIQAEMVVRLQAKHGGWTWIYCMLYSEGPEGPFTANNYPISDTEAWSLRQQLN
Sequence of NPAS4;ARNT2 (NPAS4 partner) (Q61324 1-481, chain 2 of 2): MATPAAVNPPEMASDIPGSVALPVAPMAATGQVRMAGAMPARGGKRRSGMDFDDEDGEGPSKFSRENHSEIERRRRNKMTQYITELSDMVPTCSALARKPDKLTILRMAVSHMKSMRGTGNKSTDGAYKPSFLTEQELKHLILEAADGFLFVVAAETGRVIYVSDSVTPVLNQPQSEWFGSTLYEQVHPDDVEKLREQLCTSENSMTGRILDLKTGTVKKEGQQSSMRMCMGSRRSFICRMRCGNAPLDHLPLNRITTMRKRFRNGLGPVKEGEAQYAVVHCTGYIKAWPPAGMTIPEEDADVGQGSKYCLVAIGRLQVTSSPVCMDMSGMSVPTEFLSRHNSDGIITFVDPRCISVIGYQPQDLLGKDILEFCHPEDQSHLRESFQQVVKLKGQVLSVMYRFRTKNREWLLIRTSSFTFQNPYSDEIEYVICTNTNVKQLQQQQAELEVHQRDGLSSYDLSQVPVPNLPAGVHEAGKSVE

Sequence of HIF2a;ARNT (HIFa partner) (Q99814 1-353, chain 1 of 2): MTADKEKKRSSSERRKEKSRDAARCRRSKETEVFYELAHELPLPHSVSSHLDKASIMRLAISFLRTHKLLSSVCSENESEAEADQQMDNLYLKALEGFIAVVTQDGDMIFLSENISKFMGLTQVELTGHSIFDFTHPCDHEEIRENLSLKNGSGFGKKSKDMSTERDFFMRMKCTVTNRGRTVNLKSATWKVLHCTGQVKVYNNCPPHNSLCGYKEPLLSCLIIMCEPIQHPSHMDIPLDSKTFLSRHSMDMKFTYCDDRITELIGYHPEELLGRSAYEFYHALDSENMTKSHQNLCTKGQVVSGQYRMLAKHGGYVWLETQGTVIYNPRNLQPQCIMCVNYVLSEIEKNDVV
Sequence of HIF2a;ARNT (HIFa partner) (P27540 1-503, chain 2 of 2): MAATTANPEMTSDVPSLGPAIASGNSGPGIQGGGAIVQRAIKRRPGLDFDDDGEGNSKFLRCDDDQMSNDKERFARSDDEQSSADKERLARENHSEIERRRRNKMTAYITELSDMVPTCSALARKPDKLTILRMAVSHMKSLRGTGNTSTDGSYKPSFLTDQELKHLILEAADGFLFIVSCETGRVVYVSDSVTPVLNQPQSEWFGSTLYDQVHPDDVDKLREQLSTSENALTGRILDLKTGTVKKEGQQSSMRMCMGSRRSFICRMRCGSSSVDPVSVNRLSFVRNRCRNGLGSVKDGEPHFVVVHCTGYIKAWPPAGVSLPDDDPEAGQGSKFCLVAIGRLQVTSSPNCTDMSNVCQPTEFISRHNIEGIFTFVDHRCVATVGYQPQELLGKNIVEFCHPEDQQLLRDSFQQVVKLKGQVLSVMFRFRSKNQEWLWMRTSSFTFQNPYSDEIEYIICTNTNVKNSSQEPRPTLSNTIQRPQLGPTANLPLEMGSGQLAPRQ
Sequence of SIM1;ARNT2 (SIM1 partner) (P81133 1-348, chain 1 of 2): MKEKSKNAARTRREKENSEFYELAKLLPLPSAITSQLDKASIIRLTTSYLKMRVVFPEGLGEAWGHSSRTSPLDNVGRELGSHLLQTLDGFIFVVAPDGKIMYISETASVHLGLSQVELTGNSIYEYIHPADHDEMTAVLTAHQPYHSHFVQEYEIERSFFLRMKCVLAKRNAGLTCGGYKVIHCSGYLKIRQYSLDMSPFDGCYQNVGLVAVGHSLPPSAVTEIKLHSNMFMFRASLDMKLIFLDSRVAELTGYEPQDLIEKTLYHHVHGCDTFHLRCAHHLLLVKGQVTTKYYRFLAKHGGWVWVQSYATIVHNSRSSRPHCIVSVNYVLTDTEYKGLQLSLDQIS
Sequence of SIM1;ARNT2 (SIM1 partner) (Q9HBZ2 1-455, chain 2 of 2): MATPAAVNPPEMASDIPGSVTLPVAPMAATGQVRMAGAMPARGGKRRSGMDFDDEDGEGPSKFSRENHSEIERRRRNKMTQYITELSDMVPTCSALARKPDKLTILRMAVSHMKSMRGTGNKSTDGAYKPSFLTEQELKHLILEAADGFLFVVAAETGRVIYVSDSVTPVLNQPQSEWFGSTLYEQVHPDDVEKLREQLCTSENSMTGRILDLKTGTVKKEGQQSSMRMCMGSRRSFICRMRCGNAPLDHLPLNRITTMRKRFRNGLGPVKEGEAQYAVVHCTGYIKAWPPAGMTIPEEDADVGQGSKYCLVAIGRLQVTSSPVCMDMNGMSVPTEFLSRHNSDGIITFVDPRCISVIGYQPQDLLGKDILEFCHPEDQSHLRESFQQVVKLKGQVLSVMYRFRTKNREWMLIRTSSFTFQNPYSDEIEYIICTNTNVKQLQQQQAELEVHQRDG
Sequence of HIF1a;ARNT (HIFa partner) (P27540 1-503, chain 2 of 2, other chains not shown): as the sequence (P27540 1-503, chain 2 of 2) above

B1: HRE (C/C) (dsDNA)
DNA 1: AGGCTGCGTACGTGCGGGTCGT
DNA 2: ACGACCCGCACGTACGCAGCCT
Consider B1, for which the binding signal in data set [1] is ~1 reference (HIF1a/ARNT about 2-fold higher); in data set [2] it was ~2 fold higher affinity than HIF2a/ARNT.

B2: SRE (dsDNA)
DNA 1: AAAAGGTACGTGACCAAAAAGA
DNA 2: TCTTTTTGGTCACGTACCTTTT
B2: the binding result in data set [3] is recorded as “binds”.

B3: NRE (dsDNA)
DNA 1: AAATGAGTCGTGACCAAAAATT
DNA 2: AATTTTTGGTCACGACTCATTT
In the case of B3, the binding result in data set [4] is “binds”.
